The values that follow come from paper PMC9841417 (Nucleic Acids Research, 2023).

Residue numbers refer to the chain shown, from its start. Names and notes keep the numbering of the source.

B1: Full-length Lhr H1199A-R1206A-R1286A (natural protein, Mycobacterium smegmatis, UniProt A0QT91 1-1507, looked up)
chain: MTTNGADPLGRFSALTREWFTTAFAAPTPAQADAWSAISEGNNTLVIAPTGSGKTLAAFLWAIDRLADPAREPSQGTQVLYVSPLKALAVDVERNLRTPLTGITRVAERHGLPAPSITVGVRSGDTPPNQRRAMIANPPDVLITTPESLFLMLTSAARETLTSVRTVIVDEVHAVAATKRGAHLALSLERLDQLLDTPAQRIGLSATVRPPEEVARFLSGQAPTTIVCPPAAKTFDLSVQVPVPDMANLDNNSIWPDVEERIVDLVEAHNSSIVFANSRRLAERLTSRLNEIHAERSGIELPAGPNPEVGGGAPAHLMGSGQANGAPPLLARAHHGSVSKEQRAQVEDDLKSGRLRAVVATSSLELGIDMGAVDLVIQVEAPPSVASGLQRVGRAGHQVGEISQGVLFPKHRTDLIGCAVTVQRMQTGDIETLRVPANPLDVLAQHTVAVAALEPVDADAWFDAVRRSAPFATLPRSAFEATLDLLSGKYPSTEFAELRPRLVYDRDTGTLTARPGAQRLAVTSGGAIPDRGMFTVYLASETEKPSRVGELDEEMVYESRPGDVISLGATSWRITEITHDRVLVIPAPGQPARLPFWRGDSVGRPAELGAAVGAFTGELASLDRKAFDKRCQKMGFAGYATDNLHQLLREQREATGVVPSDTTFVVERFRDELGDWRVILHSPYGLRVHGPLALAVGRRLRERYGIDEKPTASDDGIIVRLPDSGDTPPGADLFVFDADEIEPIVTAEVGGSALFASRFRECAARALLLPRRHPGKRSPLWHQRQRAAQLLDIARKYPDFPIVLEAVRECLQDVYDVPALIELMHKIAQRRLRIVEVETATPSPFAASLLFGYVGAFMYEGDSPLAERRAAALALDTVLLSELLGRVELRELLDPAVVASTSAQLQHLTPERAARDAEGVADLLRLLGPLTEADIAQRCTADNIGAWLDGLHAAKRALPVTYAGQTWWAAVEDIGLLRDGIGVPVPVGVPAAFTESASDPLGDLIGRYARTRGPFTTEQTAARFGLGVRVASDVLSRMAVDGRLIRGEFAADLSGEQWCDAQVLKILRRRSLAALRAQVEPVSTDAYARFLPSWQHVGSTNTTGIDGLATVIEQLAGVPIPASAVESLVFPQRVRDYQPAMLDELLASGEVMWSGAGQIGNGDGWVAFHLADTAPLTLTHGAEIEFTDTHRVILETLGAGGAYFFAQLTDGTVEGTAGQELKQALWELIWAGWVTGDTFAPVRAVLSGPRRSGAPAHRQRQRPPRLSRYSVAHAQTRGTDPTVSGAWSALPAAEPDSTVRAHFQAELLLGRHGVLTKGAVGAEGVPGGFATLYKVLSTFEDAGRCQRGYFVESLGGAQFAVASTVDRLRSYLDNVDPERPEYHAVVLAATDPANPYGAALGWPTDSEAHRPGRKAGALVALVDGRLVWFLERGGRSLLSFGADADAQRAAAGALTDLVSAGRIPSLLVERINGVAVLDPDVDAERAVVQDALLGAGLSRTPRGLRLR
B2: Lhr-CTD (aa 863-1507) R915A-T1100A-D1366A (domain or fragment, Mycobacterium smegmatis, UniProt A0QT91 863-1507, looked up)
chain: SPLAERRAAALALDTVLLSELLGRVELRELLDPAVVASTSAQLQHLTPERAAADAEGVADLLRLLGPLTEADIAQRCTADNIGAWLDGLHAAKRALPVTYAGQTWWAAVEDIGLLRDGIGVPVPVGVPAAFTESASDPLGDLIGRYARTRGPFTTEQTAARFGLGVRVASDVLSRMAVDGRLIRGEFAADLSGEQWCDAQVLKILRRRSLAALRAQVEPVSTDAYARFLPSWQHVGSANTTGIDGLATVIEQLAGVPIPASAVESLVFPQRVRDYQPAMLDELLASGEVMWSGAGQIGNGDGWVAFHLADTAPLTLTHGAEIEFTDTHRVILETLGHGGAYFFRQLTDGTVEGTAGQELKQALWELIWAGWVTGDTFAPVRAVLSGPRRSGAPAHRQRQRPPRLSRYSVAHAQTRGTDPTVSGRWSALPAAEPDSTVRAHFQAELLLGRHGVLTKGAVGAEGVPGGFATLYKVLSTFEDAGRCQRGYFVESLGGAQFAVASTVARLRSYLDNVDPERPEYHAVVLAATDPANPYGAALGWPTDSEAHRPGRKAGALVALVDGRLVWFLERGGRSLLSFGADADAQRAAAGALTDLVSAGRIPSLLVERINGVAVLDPDVDAERAVVQDALLGAGLSRTPRGLRLR
B3: Lhr-CTD (aa 863-1507) H1199A-R1206A-R1286A (domain or fragment, Mycobacterium smegmatis, UniProt A0QT91 863-1507, looked up)
chain: B2 chain with A53R, A238T, H337A, R344A, R424A, A504D

The data set concerns the molecule itself. Nature of the data set: SEC. Background: In gel filtration, larger molecules generally elute earlier.
Regarding B1, the stoichiometry N (usually a count of units in the complex or per binding partner) is 2. Then B2, with 4; and B3, with 2.
